# Reference: US20240141048A1 (published 2024)
# Changes are numbered by the printed parent chain. Like-named read-outs stand apart in the source and are kept apart here.
# T1: His-tagged cynomolgus VISTA extracellular domain protein (in house) (cynomolgus, UniProt A0A7N9IB00 33-194)
# T1 chain: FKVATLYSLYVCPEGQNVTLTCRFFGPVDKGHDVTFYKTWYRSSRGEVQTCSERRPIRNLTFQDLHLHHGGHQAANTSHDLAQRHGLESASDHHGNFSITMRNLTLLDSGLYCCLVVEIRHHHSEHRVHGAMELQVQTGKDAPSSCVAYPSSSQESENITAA
# B1: anti-VISTA antibody 20E4 (antibody, V domains shown)
# VH: QVQLQQSGAELMKPGASVKISCKATGYTFSSSWVEWVRQRPGHGLEWIGEIFPGSGSTHYNEKFKGKATFTADTSSNTAYLQLSSLTSDDSAVYYCARRPPGWFFDVWGAGTTVTVSS
# VL: DIVMTQSHKFMSTSVGDRVSITCKASQDVSTDVAWYQQKPGQSPKLLIYSASYRYTGVPDRFTGSGSGTDFTFTISSVQAEDLAVYYCQQHYSTPWTFGGGTKLEIK
# B2: anti-VISTA antibody 16A1 (antibody, V domains shown)
# VH: B1 VH with V34I, R38K, T58L, H59N, Y60F
# VL: B1 VL with S30T, A84T, T94S
# B3: anti-VISTA antibody 17E9 (antibody, V domains shown)
# VH: QVQLQQSGAELMKPGASVKISCTATGYTFSSCWIEWVKQRPGHGLEWLGEILPGSDYTNYNEKFKDKATFTADTSSDTAYMQLSSLTSEDSAVYYCARRPPGWYFDVWGAGTAVTVSS
# VL: B1 VL with V33I, Y55F, Q90H, H91Q, E105D
# B4: anti-VISTA antibody 15D11 (antibody, V domains shown)
# VH: EVQLQQSGSELVKAGASVKLSCTASGFKIKDTFIHWVKQRPEQGLDWIGRIDPANGNSKYDPKFQGKATITADTSSNTAYLQLSSLTSEDTAVYYCARWPSNWEAMDYWGQGTSVTVSS
# VL: QIVLTQSPAIMSASPGEKVTMTCSASSSVSYMYWYQQKPGSSPRLLIYDTSNLASGVPFRFSGSGSGTSYSLTISRMEAEDAATYYCQQWISYPLTFGTGTKLELK
# B5: anti-VISTA antibody 9F9 (antibody, V domains shown)
# VH: QVQFQQSGAELARPGASVKLSCKASGYTFTGYWMQWVKQRPGQGLEWIGAIYPGDGDTRYSQKFKGKVTLTADKSSSTAYMQLSSLASEDSAVYYCARRDYGAWFAYWGQGTLVTVSA
# VL: DIKVTQSPSSMYASLGERVTITCKASQDINSYLSWFQQKPGKSPKTLIYRANRLVDGVPSRFSGSGSGQDYSLTISSLDYEDMGIYYCLQYDEFPYTFGGGTKLEIK
# Tests used:
# Test in all cases: BLI
# [1] = molecular target: T2, His-tagged human VISTA extracellular domain protein (in house) (UniProt Q9H7M9 33-194)
# T2 sequence (Q9H7M9 33-194): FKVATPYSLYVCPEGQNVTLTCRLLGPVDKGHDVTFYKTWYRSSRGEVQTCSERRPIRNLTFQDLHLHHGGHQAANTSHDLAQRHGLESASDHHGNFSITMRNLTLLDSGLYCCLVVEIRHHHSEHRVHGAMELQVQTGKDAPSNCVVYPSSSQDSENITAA
# [2] = molecular target: T1, His-tagged cynomolgus VISTA …
# [3] = molecular target: T2, His-tagged human VISTA extracellular …; remark: listed apart in the source
# [4] = molecular target: T1, His-tagged cynomolgus VISTA …
# [5] = molecular target: T2, His-tagged human VISTA extracellular …; remark: listed apart in the source
# [6] = molecular target: T1, His-tagged cynomolgus VISTA …
# [7] = molecular target: T2, His-tagged human VISTA extracellular …; remark: listed apart in the source
# [8] = molecular target: T1, His-tagged cynomolgus VISTA …
# [9] = molecular target: T2, His-tagged human VISTA extracellular …; remark: listed apart in the source
# [10] = molecular target: T1, His-tagged cynomolgus VISTA …
binder,measurement,setting,value
B1,Kd,[1],0.011 nM
same,Kd,[2],6.53 nM
B2,Kd,[3],0.00278 nM
same,Kd,[4],2.57 nM
B3,Kd,[5],0.00421 nM
same,Kd,[6],3.35 nM
B4,Kd,[7],12.5 nM
same,Kd,[8],0.00583 nM
B5,Kd,[9],2.45 nM
same,Kd,[10],7.37 nM
